System: peptide library, one residue held at a place counted from the S/T acceptor
Test: relative phosphorylation of the sub-library (ratio to the mean residue at this position); higher = residue favoured
Method in brief: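 Each biotinylated degenerate peptide sub-library fixed one residue at one position around a central Ser/Thr and was incubated with a purified recombinant kinase, a human or orthologue construct, in 384-well plates. The 90 min reactions, under kinase-specific conditions, contained 50 μM peptide and 50 μM ATP spiked with γ-32P-ATP. Phosphorylation was read by phosphorimaging spots on streptavidin membranes and quantifying them by densitometry. Relative sub-library phosphorylation expresses each value as a ratio to the mean residue at that position.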

CDK4, construct: Full length, human, sequence (P11802 whole entry, looked up): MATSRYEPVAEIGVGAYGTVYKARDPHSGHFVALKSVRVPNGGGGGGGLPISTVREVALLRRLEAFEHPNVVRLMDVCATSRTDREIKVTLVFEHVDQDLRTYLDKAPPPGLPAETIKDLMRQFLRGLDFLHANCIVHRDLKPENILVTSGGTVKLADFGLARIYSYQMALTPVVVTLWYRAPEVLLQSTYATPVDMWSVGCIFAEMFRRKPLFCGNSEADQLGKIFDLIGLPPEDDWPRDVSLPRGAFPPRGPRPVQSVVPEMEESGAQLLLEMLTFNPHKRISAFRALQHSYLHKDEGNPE

CDK4, construct: Full length, human (from UniProt P11802)
relative phosphorylation
Conditions	at +1	at +2	at +3	at +4	at -1	at -2	at -3	at -4	at -5
A fixed	0.244	0.682	0.688	0.766	0.896	0.85	1.04	1	1.02
D fixed	0.173	0.416	0.335	0.58	0.421	0.228	0.387	0.667	0.799
E fixed	0.133	0.337	0.246	0.526	0.504	0.298	0.59	0.844	0.796
F fixed	0.237	0.736	0.778	0.851	0.96	1.06	0.741	0.852	0.797
G fixed	0.746	0.88	0.82	1.11	1.03	0.596	1.4	1.18	1.28
H fixed	0.266	1.32	1.05	1.38	1.02	1.04	1.13	1.09	1.16
I fixed	0.278	1.16	0.428	0.855	0.531	1.01	0.915	0.838	0.917
K fixed	0.29	1.55	1.86	1.2	1.29	0.798	1.21	1.23	1.4
L fixed	0.364	0.967	0.412	0.587	1.28	1.41	0.874	0.808	0.752
M fixed	0.267	1.03	0.566	0.909	1.46	1.28	0.796	0.827	0.813
N fixed	0.258	1.27	0.739	0.976	0.731	0.948	0.856	1.16	1.08
P fixed	12.4	0.481	0.92	0.848	0.94	2.52	1.14	1.08	1.14
Q fixed	0.275	0.789	0.652	0.801	1.27	0.76	0.704	0.832	0.822
R fixed	0.324	2.59	4.48	2.2	1.9	1.39	2.5	1.52	1.6
V fixed	0.302	1.01	0.417	0.636	0.624	0.891	0.889	0.658	0.68
W fixed	0.239	0.624	1.54	1.42	0.996	0.88	0.87	1.28	0.782
Y fixed	0.222	1.16	1.07	1.36	1.13	1.05	0.957	1.13	1.15
pThr fixed	0.323	0.406	0.361	0.422	0.237	0.382	0.592	0.644	0.77
pTyr fixed	0.482	0.391	0.503	0.432	0.357	0.356	0.592	0.544	0.934

— the supplement of paper PMC9876800
